According to paper PMC4838878:

How the values were obtained:
[1] = target: Myc-Lphn3 with a C-terminal Avitag [mouse]; assay: anti-GFP (mV) pull-down, quantified blot; details: lysate of HEK293 cells co-transfected with FLAG-FLRT2; averaged over 3-4 independent experiments; parent: 1.1; read off a plot
[2] = target: HA-Unc5D with a C-terminal Avitag [rat]; assay: anti-GFP (mV) pull-down, quantified blot; details: lysate of HEK293 cells co-transfected with FLAG-FLRT2; averaged over 3-4 independent experiments; parent: 1; read off a plot

Row | response (normalized intensity) [1] | response (normalized intensity) [2] | Substance
1 | 0.35 |  | HA-Unc5D mono-Venus fusion protein (HA-Unc5D-mV) mutant W89N; H91T [rat] / Myc-Lphn3 with a C-terminal Avitag [mouse] chain 1 W44N, chain 1 H46T
2 |  | 0.41 | Myc-Lphn3-mV mutant R292N; R294T [mouse] / HA-Unc5D with a C-terminal Avitag [rat] chain 1 R273N, chain 1 R275T
